Laboratory results taken from US20240209114A1 (JIANGSU HENGRUI PHARMACEUTICALS, published 2024).
Where a chain is given by its changes, count along the chain named. In names and notes the source's numbering stands. Where two headings read alike, the source gives them in different places.

Columns and labels:
[1] = molecular target: T1, Murine MASP2A (S632A) protein (murine, UniProt Q91WP0 16-685); experiment: SPR (Biacore 8K), antibody captured on anti-human Fc chip, antigen as analyte
Procedure: (§1) The binding properties of the anti-MASP2 antibodies were determined by the method of Biacore. […] An anti-human Fc IgG capture chip was used to capture the antibodies, then antigens with different concentrations were used as a mobile phase for the determination, and finally curve fitting was performed according to a 1:1 mode to obtain affinity values.

MASP2 in human serum [2] = molecular target: T2, MASP2 in human serum (human, UniProt O00187 16-686); experiment: cell-based or functional assay
MASP2 in monkey serum = MASP2 in monkey serum (monkey); experiment: cell-based or functional assay
MASP2 in human serum [3] = molecular target: T2, MASP2 in human serum; experiment: cell-based or functional assay; remark: listed apart in the source
[4] = molecular target: Monkey MASP2A (S633A) protein (monkey, UniProt O00187 16-686 (human entry)); experiment: SPR (Biacore 8K), antibody captured on anti-human Fc chip, antigen as analyte, 1:1 fit
Procedure: as §1

[5] = molecular target: T3, Human MASP2A (S633A) protein (human, UniProt O00187 16-686); experiment: as above
T3 construct: also called human enzymatic mutant human MASP2A (S633A)
Procedure: as §1

MASP2 in human serum [6] = molecular target: T2, MASP2 in human serum; experiment: cell-based or functional assay; remark: listed apart in the source
MASP2 in mouse serum = MASP2 in mouse serum (mouse, UniProt Q91WP0 20-685); experiment: cell-based or functional assay
[7] = molecular target: T1, Murine MASP2A (S632A) protein; experiment: SPR (Biacore 8K), antibody captured on anti-human Fc chip, antigen as analyte, 1:1 fit
Procedure: as §1

MASP2 in human serum [8] = molecular target: T2, MASP2 in human serum; experiment: cell-based or functional assay; remark: listed apart in the source
MASP2 in human serum [9] = molecular target: T2, MASP2 in human serum; experiment: cell-based or functional assay; remark: listed apart in the source

T3 sequence (O00187 other isoform, or with tags, fused parts or gaps S633A S633A): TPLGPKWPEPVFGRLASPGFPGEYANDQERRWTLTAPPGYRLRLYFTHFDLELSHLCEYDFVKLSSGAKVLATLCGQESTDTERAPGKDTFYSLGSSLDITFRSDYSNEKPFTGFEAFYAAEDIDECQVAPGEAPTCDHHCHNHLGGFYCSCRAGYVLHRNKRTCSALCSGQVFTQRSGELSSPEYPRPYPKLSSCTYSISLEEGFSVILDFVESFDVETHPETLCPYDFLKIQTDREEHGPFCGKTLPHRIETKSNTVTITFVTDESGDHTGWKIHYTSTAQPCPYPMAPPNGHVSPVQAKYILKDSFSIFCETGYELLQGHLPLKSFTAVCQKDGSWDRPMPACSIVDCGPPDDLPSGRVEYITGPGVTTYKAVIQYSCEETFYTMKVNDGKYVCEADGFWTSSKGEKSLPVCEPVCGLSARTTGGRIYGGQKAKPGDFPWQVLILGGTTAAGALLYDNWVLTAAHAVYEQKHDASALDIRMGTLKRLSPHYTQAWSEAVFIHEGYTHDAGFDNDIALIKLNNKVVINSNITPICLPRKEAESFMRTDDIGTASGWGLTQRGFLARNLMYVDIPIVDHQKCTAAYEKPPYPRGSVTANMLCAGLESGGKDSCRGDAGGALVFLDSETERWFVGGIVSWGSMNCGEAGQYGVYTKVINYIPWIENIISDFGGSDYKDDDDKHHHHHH
T2 sequence (O00187 16-686 limits assumed): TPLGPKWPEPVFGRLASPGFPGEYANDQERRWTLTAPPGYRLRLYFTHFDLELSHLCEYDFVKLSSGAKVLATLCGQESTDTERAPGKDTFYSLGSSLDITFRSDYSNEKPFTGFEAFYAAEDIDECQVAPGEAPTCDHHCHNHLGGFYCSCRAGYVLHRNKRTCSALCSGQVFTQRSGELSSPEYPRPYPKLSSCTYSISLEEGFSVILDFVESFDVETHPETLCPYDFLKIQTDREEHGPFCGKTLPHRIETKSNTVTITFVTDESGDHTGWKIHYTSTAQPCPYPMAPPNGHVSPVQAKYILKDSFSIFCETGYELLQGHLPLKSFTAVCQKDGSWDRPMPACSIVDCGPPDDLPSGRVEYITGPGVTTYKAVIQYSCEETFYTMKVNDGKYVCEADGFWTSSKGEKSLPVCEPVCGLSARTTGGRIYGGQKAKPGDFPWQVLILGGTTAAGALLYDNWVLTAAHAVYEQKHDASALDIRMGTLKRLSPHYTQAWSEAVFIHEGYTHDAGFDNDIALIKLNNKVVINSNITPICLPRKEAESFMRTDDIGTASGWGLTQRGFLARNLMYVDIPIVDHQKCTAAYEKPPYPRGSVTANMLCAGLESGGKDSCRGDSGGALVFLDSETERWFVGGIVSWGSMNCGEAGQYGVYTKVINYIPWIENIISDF
T1 sequence (Q91WP0 other isoform, or with tags, fused parts or gaps S632A S632A): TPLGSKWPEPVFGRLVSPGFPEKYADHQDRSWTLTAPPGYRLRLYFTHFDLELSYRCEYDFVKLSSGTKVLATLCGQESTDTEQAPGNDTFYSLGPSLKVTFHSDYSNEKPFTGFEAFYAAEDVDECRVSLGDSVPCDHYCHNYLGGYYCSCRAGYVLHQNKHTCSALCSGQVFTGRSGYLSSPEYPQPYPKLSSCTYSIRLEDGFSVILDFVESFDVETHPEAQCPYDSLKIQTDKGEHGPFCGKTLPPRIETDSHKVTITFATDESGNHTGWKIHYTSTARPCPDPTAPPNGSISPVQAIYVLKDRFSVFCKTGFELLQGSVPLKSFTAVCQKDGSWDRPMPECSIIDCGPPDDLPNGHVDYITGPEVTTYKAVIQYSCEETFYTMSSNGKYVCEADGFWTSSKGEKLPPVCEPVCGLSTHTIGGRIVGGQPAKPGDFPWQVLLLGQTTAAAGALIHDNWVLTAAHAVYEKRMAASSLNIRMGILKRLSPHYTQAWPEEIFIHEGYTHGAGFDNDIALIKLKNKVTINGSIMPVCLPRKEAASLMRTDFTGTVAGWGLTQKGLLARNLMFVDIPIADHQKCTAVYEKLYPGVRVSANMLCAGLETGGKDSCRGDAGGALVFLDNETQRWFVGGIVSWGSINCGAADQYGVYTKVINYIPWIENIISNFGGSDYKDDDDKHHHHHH
Chain of Monkey MASP2A (S633A) protein (O00187 other isoform, or with tags, fused parts or gaps S633A S633A): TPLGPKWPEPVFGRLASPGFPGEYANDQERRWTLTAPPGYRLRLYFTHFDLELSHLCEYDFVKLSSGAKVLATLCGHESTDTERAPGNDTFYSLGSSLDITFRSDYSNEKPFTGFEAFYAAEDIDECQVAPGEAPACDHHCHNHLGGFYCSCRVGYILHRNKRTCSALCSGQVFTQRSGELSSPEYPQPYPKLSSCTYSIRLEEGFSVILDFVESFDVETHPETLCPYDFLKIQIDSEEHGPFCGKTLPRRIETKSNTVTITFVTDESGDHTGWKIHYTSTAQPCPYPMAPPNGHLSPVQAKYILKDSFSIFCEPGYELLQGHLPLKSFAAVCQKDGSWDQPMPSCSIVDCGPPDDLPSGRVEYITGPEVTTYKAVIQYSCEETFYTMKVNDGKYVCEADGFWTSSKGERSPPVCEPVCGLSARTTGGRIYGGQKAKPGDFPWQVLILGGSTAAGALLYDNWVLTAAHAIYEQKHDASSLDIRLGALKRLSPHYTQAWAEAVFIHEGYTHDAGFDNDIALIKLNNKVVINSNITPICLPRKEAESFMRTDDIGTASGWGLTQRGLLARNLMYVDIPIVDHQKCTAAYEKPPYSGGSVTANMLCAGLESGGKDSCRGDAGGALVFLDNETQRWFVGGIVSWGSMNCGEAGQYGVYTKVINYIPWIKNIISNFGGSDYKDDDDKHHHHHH
Chain of MASP2 in mouse serum (Q91WP0 20-685 limits assumed): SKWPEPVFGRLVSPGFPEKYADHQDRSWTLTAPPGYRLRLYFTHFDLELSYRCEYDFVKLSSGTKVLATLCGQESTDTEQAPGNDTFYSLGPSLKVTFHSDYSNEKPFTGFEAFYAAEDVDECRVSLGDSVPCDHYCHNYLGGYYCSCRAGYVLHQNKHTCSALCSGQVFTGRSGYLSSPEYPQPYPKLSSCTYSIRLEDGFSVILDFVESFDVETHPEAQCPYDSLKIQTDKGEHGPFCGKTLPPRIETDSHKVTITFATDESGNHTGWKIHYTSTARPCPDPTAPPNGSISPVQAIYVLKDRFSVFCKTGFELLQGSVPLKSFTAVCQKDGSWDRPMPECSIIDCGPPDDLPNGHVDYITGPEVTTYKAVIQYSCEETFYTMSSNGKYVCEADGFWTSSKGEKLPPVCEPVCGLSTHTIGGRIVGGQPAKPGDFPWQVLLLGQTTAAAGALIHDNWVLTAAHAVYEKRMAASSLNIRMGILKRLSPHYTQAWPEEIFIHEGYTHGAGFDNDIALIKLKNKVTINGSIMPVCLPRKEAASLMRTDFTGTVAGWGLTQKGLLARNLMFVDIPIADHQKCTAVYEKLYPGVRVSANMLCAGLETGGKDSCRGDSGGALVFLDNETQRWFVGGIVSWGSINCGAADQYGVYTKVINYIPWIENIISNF

B1: 77H11 (H3L1) (antibody, human IgG4 S228P, kappa, V domains shown)
VH: EVQLQESGPGLVKPSQTLSLTCTVSGYSITSDYAWNWIRQPPGKGLEWIGYISYSGRTSYNPSLKSRVTISRDTSKNQFSLKLSSVTAADTAVYYCAVLYALDYWGQGTTVTVSS
VL: DIQMTQSPSSLSASVGDRVTITCKASQNVDTNVAWYQQKPGKVPKALIYSASYRYSGVPSRFSGSGSGTDFTLTISSLQPEDVATYYCQQYNSNPLTFGQGTKLEIKR
notes: Humanized 77H11, full-length human IgG4 (S228P); also called 77H1(H3L1); 77H1 (H3L1)
binding result [1]: no binding
90% human serum IC50 (µg/mL), inhibition of the lectin pathway (C4c deposition on mannan) (MASP2 in human serum [2]): 0.97 µg/mL
90% monkey serum IC50 (µg/mL), inhibition of the lectin pathway (C4c deposition on mannan) (MASP2 in monkey serum): 21.6 µg/mL
IC50 (µg/mL), inhibition of the lectin pathway in 90% human serum (C4c deposition on mannan) (MASP2 in human serum [3]): 0.624 µg/mL
Kd [4]: 0.14 nM
koff [4]: 8.63e-05 s⁻¹
kon [4]: 616000 M⁻¹ s⁻¹

B2: 77H11 (H3L2) (antibody, V domains shown)
VH: B1 VH
VL: DIQMTQSPSSLSASVGDRVTITCKASQNVDTNVAWYQQKPGKSPKALIYSASYRYSGVPSRFSGSGSGTDFTLTISSLQPEDVAEYYCQQYNSNPLTFGQGTKLEIK
IC50 (µg/mL), inhibition of the lectin pathway in 90% human serum (C4c deposition on mannan) (MASP2 in human serum [3]): 0.454 µg/mL

B3: 77H11 (H2L2) (antibody, V domains shown)
VH: B1 VH with R72V
VL: B2 VL
IC50 (µg/mL), inhibition of the lectin pathway in 90% human serum (C4c deposition on mannan) (MASP2 in human serum [3]): 1.58 µg/mL

B4: 77H11 (H4L1) (antibody, V domains shown)
VH: B1 VH with K44N, G45K, I49M, V68I
VL: B2 VL with S43V, E85T
IC50 (µg/mL), inhibition of the lectin pathway in 90% human serum (C4c deposition on mannan) (MASP2 in human serum [3]): 0.67 µg/mL

B5: 77H11 (H4L2) (antibody, V domains shown)
VH: B1 VH with K44N, G45K, I49M, V68I
VL: B2 VL
IC50 (µg/mL), inhibition of the lectin pathway in 90% human serum (C4c deposition on mannan) (MASP2 in human serum [3]): 0.443 µg/mL

B6: 29C1 (H1L1) (antibody, human IgG4 S228P, kappa, V domains shown)
VH: EVQLVESGGGLVKPGGSLRLSCAASGFTFSRFALSWVRQAPGKGLEWVSAVSRGGDYTYYPDSMKGRFTISRDNAKNSLYLQMNSLRAEDTAVYYCARHLYGYGHYYAMDYWGQGTTVTVSS
VL: DIQMTQSPSSLSASVGDRVTITCKASQDVNTAVAWYQQKPGKAPKLLIYSASYRYTGVPSRFSGSGSGTDFTFTISSLQPEDIATYYCQQHYSTPYTFGGGTKVEIKR
notes: Humanized 29C1, full-length human IgG4 (S228P); also called 29C1 (HIL1)
binding result [1]: no binding
90% human serum IC50 (µg/mL), inhibition of the lectin pathway (C4c deposition on mannan) (MASP2 in human serum [2]): 1.18 µg/mL
90% monkey serum IC50 (µg/mL), inhibition of the lectin pathway (C4c deposition on mannan) (MASP2 in monkey serum): 15.3 µg/mL
IC50 (µg/mL), inhibition of the lectin pathway in 90% human serum (C4c deposition on mannan) (MASP2 in human serum [3]): 0.477 µg/mL
Kd [5]: 0.0716 nM
koff [5]: 2.94e-05 s⁻¹
kon [5]: 410000 M⁻¹ s⁻¹
Kd [4]: 0.193 nM
koff [4]: 6.83e-05 s⁻¹
kon [4]: 354000 M⁻¹ s⁻¹

B7: 29C1 (H2L1) (antibody, V domains shown)
VH: B6 VH with S49A
VL: DIQMTQSPSSLSASVGDRVTITCKASQDVNTAVAWYQQKPGKAPKLLIYSASYRYTGVPSRFSGSGSGTDFTFTISSLQPEDIATYYCQQHYSTPYTFGGGTKVEIK
IC50 (µg/mL), inhibition of the lectin pathway in 90% human serum (C4c deposition on mannan) (MASP2 in human serum [3]): 0.471 µg/mL

B8: 29C1 (H2L2) (antibody, V domains shown)
VH: B6 VH with S49A
VL: B7 VL with Q3V, A43S
IC50 (µg/mL), inhibition of the lectin pathway in 90% human serum (C4c deposition on mannan) (MASP2 in human serum [3]): 0.555 µg/mL

B9: 29C1 (H3L1) (antibody, V domains shown)
VH: B6 VH with S49A
VL: B7 VL
IC50 (µg/mL), inhibition of the lectin pathway in 90% human serum (C4c deposition on mannan) (MASP2 in human serum [3]): 0.526 µg/mL

B10: 29C1 (H1L2) (antibody, V domains shown)
VH: B6 VH
VL: B7 VL with Q3V, A43S
IC50 (µg/mL), inhibition of the lectin pathway in 90% human serum (C4c deposition on mannan) (MASP2 in human serum [3]): 0.534 µg/mL

B11: 29C1 (H3L2) (antibody, V domains shown)
VH: B6 VH with S49A
VL: B7 VL with Q3V, A43S
IC50 (µg/mL), inhibition of the lectin pathway in 90% human serum (C4c deposition on mannan) (MASP2 in human serum [3]): 0.515 µg/mL

B12: 11165 (antibody, human IgG4 S228P, lambda, V domains shown)
VH: QVQLQESGPGLVKPSETLSLTCTVSGGSISSGEYFWGWIRQPPGKGLEWIGSIYYSGSTYYNPSLKSRVTISVDTSKNQFSLKLSSVTAADTAVYYCARSLKAARRDAFDIWGQGTTVTVSS
VL: QSVLTQPPSVSVSPGQTASITCSGHKLGDKYAYWYQQKPGQSPVLVIYQDTKRPSGIPERFSGFNSGNTATLTISGTQATDEADYYCQTWDSSTGVFGAGTKVTVLG
notes: Fully human antibody from phage display; Full-length human IgG4 (S228P), lambda light chain
IC50 (µg/mL), inhibition of the lectin pathway in 1% human serum (C4c deposition on mannan) (MASP2 in human serum [6]): 0.499 µg/mL
90% mouse serum IC50 (µg/mL), inhibition of the lectin pathway (C4c deposition on mannan) (MASP2 in mouse serum): 4.26 µg/mL
90% human serum IC50 (µg/mL), inhibition of the lectin pathway (C4c deposition on mannan) (MASP2 in human serum [2]): 0.93 µg/mL
90% monkey serum IC50 (µg/mL), inhibition of the lectin pathway (C4c deposition on mannan) (MASP2 in monkey serum): 21.1 µg/mL
Kd [7]: 0.435 nM
koff [7]: 0.00192 s⁻¹
kon [7]: 4.41e+06 M⁻¹ s⁻¹

B13: OMS721 (antibody, human IgG4 S228P, lambda, V domains shown)
VH: QVTLKESGPVLVKPTETLTLTCTVSGFSLSRGKMGVSWIRQPPGKALEWLAHIFSSDEKSYRTSLKSRLTISKDTSKNQVVLTMTNMDPVDTATYYCARIRRGGIDYWGQGTLVTVSS
VL: QPVLTQPPSLSVSPGQTASITCSGEKLGDKYAYWYQQKPGQSPVLVMYQDKQRPSGIPERFSGSNSGNTATLTISGTQAMDEADYYCQAWDSSTAVFGGGTKLTVLG
notes: Positive control, synthesized according to WO2012151481A; also called narsoplimab; positive control antibody
90% mouse serum IC50 (µg/mL), inhibition of the lectin pathway (C4c deposition on mannan) (MASP2 in mouse serum): 3.74 µg/mL
90% monkey serum IC50 (µg/mL), inhibition of the lectin pathway (C4c deposition on mannan) (MASP2 in monkey serum): 26.6 µg/mL
Kd [7]: 0.233 nM

B14: 77H11 (antibody, V domains shown)
VH: DVQLQESGPGLVKPSQSLSLTCTVTGYSITSDYAWNWIRQFPGNKLEWMGYISYSGRTSYNPSLKSRISITRDTSKNQFFLQLNSVTTEDTATYYCAVLYALDYWGQGTSVTVSS
VL: DIVMTQSQKFMSTSVGDRVSVTCKASQNVDTNVAWYQQKPGQSPKALIYSASYRYSGVPDRFTGSGSGTDFTLTISDVQSEDLAEYFCQQYNSNPLTFGSGTKLEIK
IC50 (µg/mL), inhibition of the lectin pathway in 1% human serum (C4c deposition on mannan) (MASP2 in human serum [8]): 0.63 µg/mL

B15: 67D2 (antibody, V domains shown)
VH: B14 VH with V98I, L102M, D103N, Y104F
VL: B14 VL with Y55F, D77N
IC50 (µg/mL), inhibition of the lectin pathway in 1% human serum (C4c deposition on mannan) (MASP2 in human serum [8]): 0.559 µg/mL

B16: 67E8 (antibody, V domains shown)
VH: B14 VH with V98I, L102M
VL: B14 VL with D77N
IC50 (µg/mL), inhibition of the lectin pathway in 1% human serum (C4c deposition on mannan) (MASP2 in human serum [8]): 0.738 µg/mL

B17: 29C1 (antibody, V domains shown)
VH: EVQLVESGGGLVKPGGSLKLSCAASGFTFSRFALSWVRQTPEKRLEWVAAVSRGGDYTYYPDSMKGRFTISRDNAMNTLYLQMSSLSSEDTAMYYCARHLYGYGHYYAMDYWGQGTSVTVSS
VL: DIVMTQSHKFMSTSVGDRVSITCKASQDVNTAVAWYQQKPGQSPKLLIYSASYRYTGVPDRFTGSGSGTDFTFTISSVQAEDLAVYYCQQHYSTPYTFGGGTKLEIK
IC50 (µg/mL), inhibition of the lectin pathway in 1% human serum (C4c deposition on mannan) (MASP2 in human serum [9]): 0.086 µg/mL
